Source: the RNAGym collection of RNA variant scans (doi:10.7554/elife.80360)

B1: HDV Ribozyme (parent)
chain: GGCCGGCAUGGUCCCAGCCUCCUCGCUGGCGCCGGCUGGGCAACAUUCCGAGGGGACCGUCCCCUCGGUAAUGGCGAAUGGGACCCA

Variants of: B1
Assay: self-cleavage, relative activity (ratio to wild type); higher = more cleavage; co-transcriptional

Q: Which self-cleavage does the source give for C19G C21U here?
A: 0.122

Q: For U20A G80A, which self-cleavage is on record?
A: 0.0712

Q: For C19G C85A, which self-cleavage is on record?
A: 0.148

Q: With C21G G34C as the variant, how does the self-cleavage read?
A: 0.111

Q: For U20A G52C, which self-cleavage is on record?
A: 0.0449

Q: With U20C U72A as the variant, how does the self-cleavage read?
A: 0.123

Q: Which self-cleavage does the source give for U20C U72C here?
A: 0.0755

Q: With C19U C63A as the variant, how does the self-cleavage read?
A: 0.199

Q: With C21G G38C as the variant, how does the self-cleavage read?
A: 0

Q: With U20C G39A as the variant, how does the self-cleavage read?
A: 0

Q: With U20A C33A as the variant, how does the self-cleavage read?
A: 0

Q: For C19G C26A, which self-cleavage is on record?
A: 0.104

Q: For C19G C26G, which self-cleavage is on record?
A: 0

Q: With C21A A83U as the variant, how does the self-cleavage read?
A: 0.0739

Q: With U20G C58U as the variant, how does the self-cleavage read?
A: 0.237

Q: Which self-cleavage does the source give for U20G C58G here?
A: 0.266

Q: Which self-cleavage does the source give for U20A C49A here?
A: 0

Q: Which self-cleavage does the source give for U20A C49G here?
A: 0.128

Q: For C21G C36G, which self-cleavage is on record?
A: 0

Q: With C21G C36A as the variant, how does the self-cleavage read?
A: 0.0405

Q: With C21G C36U as the variant, how does the self-cleavage read?
A: 0.0326

Q: Which self-cleavage does the source give for C21A A70C here?
A: 0.0426

Q: Which self-cleavage does the source give for C21G C63U here?
A: 0.0339

Q: For C21G C63G, which self-cleavage is on record?
A: 0.0378

Q: For C21G C63A, which self-cleavage is on record?
A: 0.106

Q: Which self-cleavage does the source give for C21G C32U here?
A: 0.128

Q: With C19U G73A as the variant, how does the self-cleavage read?
A: 0.122

Q: With C19U G73C as the variant, how does the self-cleavage read?
A: 0.0479

Q: With C19U G73U as the variant, how does the self-cleavage read?
A: 0.12

Q: For U20A U72C, which self-cleavage is on record?
A: 0.0723

Q: Which self-cleavage does the source give for C19G C33A here?
A: 0.111

Q: Which self-cleavage does the source give for C19G C33G here?
A: 0

Q: Which self-cleavage does the source give for U20C C24G here?
A: 0.115

Q: Which self-cleavage does the source give for U20C C22A here?
A: 0.119

Q: For U20C C22G, which self-cleavage is on record?
A: 0.0554

Q: Which self-cleavage does the source give for C21A A78C here?
A: 0

Q: Which self-cleavage does the source give for C21A A78G here?
A: 0.189

Q: Which self-cleavage does the source give for C21A A78U here?
A: 0.0573

Q: With C19U G52A as the variant, how does the self-cleavage read?
A: 0.137

Q: For C19U G52U, which self-cleavage is on record?
A: 0.265

Q: Which self-cleavage does the source give for C19U G40U here?
A: 0.0839

Q: Which self-cleavage does the source give for U20G A43G here?
A: 0.104

Q: With U20G U23C as the variant, how does the self-cleavage read?
A: 0

Q: Which self-cleavage does the source give for U20G U23A here?
A: 0

Q: For U20C G25A, which self-cleavage is on record?
A: 0.458

Q: Which self-cleavage does the source give for U20A U46A here?
A: 0.0594

Q: Which self-cleavage does the source give for U20G A42C here?
A: 0.0875

Q: With U20G C66A as the variant, how does the self-cleavage read?
A: 0.249

Q: With U20C G29U as the variant, how does the self-cleavage read?
A: 0.0519

Q: With U20A A56U as the variant, how does the self-cleavage read?
A: 0.0519

Q: For C21A C33U, which self-cleavage is on record?
A: 0.0723

Q: Which self-cleavage does the source give for C21A C33A here?
A: 0.026

Q: For C21A G80C, which self-cleavage is on record?
A: 0.0496

Q: With U20A G40U as the variant, how does the self-cleavage read?
A: 0.0627

Q: For C21A C61G, which self-cleavage is on record?
A: 0.0997

Q: Which self-cleavage does the source give for U20A G29C here?
A: 0.128

Q: With C19U G35U as the variant, how does the self-cleavage read?
A: 0.0519

Q: With C21A A71C as the variant, how does the self-cleavage read?
A: 0.0692

Q: Which self-cleavage does the source give for U20G A71G here?
A: 0.196

Q: Which self-cleavage does the source give for U20G A71C here?
A: 0

Q: Which self-cleavage does the source give for C21G G39C here?
A: 0.554

Q: For C21G A83G, which self-cleavage is on record?
A: 0.0987

Q: With C19G G73A as the variant, how does the self-cleavage read?
A: 0.021

Q: For C19G G82C, which self-cleavage is on record?
A: 0.0594

Q: For C21A A87U, which self-cleavage is on record?
A: 0.0915

Q: For C21A A87G, which self-cleavage is on record?
A: 0.0496

Q: For U20A C32G, which self-cleavage is on record?
A: 0.111

Q: Which self-cleavage does the source give for C19G A83G here?
A: 0.0678

Q: Which self-cleavage does the source give for C21A A43U here?
A: 0.0944

Q: Which self-cleavage does the source give for U20A G55A here?
A: 0.0959

Q: With C19G C57G as the variant, how does the self-cleavage read?
A: 0.0739

Q: For U20G C86U, which self-cleavage is on record?
A: 0.214

Q: With C19U U23C as the variant, how does the self-cleavage read?
A: 0

Q: With C21A U37G as the variant, how does the self-cleavage read?
A: 0.208

Q: For U20C A45U, which self-cleavage is on record?
A: 0.166

Q: For U20G U37C, which self-cleavage is on record?
A: 0.237

Q: Which self-cleavage does the source give for C19U A42G here?
A: 0

Q: For C19U A42C, which self-cleavage is on record?
A: 0.104

Q: For U20A G38C, which self-cleavage is on record?
A: 0.119

Q: With U20G A70G as the variant, how does the self-cleavage read?
A: 0.312

Q: Which self-cleavage does the source give for U20G A70U here?
A: 0.196

Q: For U20C C66U, which self-cleavage is on record?
A: 0.0831

Q: With U20C C66A as the variant, how does the self-cleavage read?
A: 0.135

Q: With U20C G34U as the variant, how does the self-cleavage read?
A: 0.086

Q: With U20G C49G as the variant, how does the self-cleavage read?
A: 0.361

Q: Which self-cleavage does the source give for U20G C49A here?
A: 0.308

Q: For U20G C49U, which self-cleavage is on record?
A: 0.185

Q: With C19U G82C as the variant, how does the self-cleavage read?
A: 0.0817

Q: With C19U G82A as the variant, how does the self-cleavage read?
A: 0.0511

Q: For C21G G29U, which self-cleavage is on record?
A: 0.0733

Q: For C21A G28U, which self-cleavage is on record?
A: 0.196

Q: Which self-cleavage does the source give for U20C G74C here?
A: 0.107

Q: With C19U U79A as the variant, how does the self-cleavage read?
A: 0.0396

Q: With C19U U79G as the variant, how does the self-cleavage read?
A: 0.0997

Q: Which self-cleavage does the source give for U20C G80U here?
A: 0.0625

Q: With U20G U72C as the variant, how does the self-cleavage read?
A: 0

Q: Which self-cleavage does the source give for C19G G52U here?
A: 0.145

Q: With C19U A87U as the variant, how does the self-cleavage read?
A: 0.149

Q: Which self-cleavage does the source give for C21G C64A here?
A: 0.131

Q: With C21G C64U as the variant, how does the self-cleavage read?
A: 0.0287

Q: With C19G C36A as the variant, how does the self-cleavage read?
A: 0.0277

Q: For C19G A71C, which self-cleavage is on record?
A: 0.0665

Q: With U20A U47C as the variant, how does the self-cleavage read?
A: 0.0594

Q: With U20A U47A as the variant, how does the self-cleavage read?
A: 0.104

Q: Which self-cleavage does the source give for U20C G52U here?
A: 0.145

Q: With C19U G53U as the variant, how does the self-cleavage read?
A: 0.215

Q: Which self-cleavage does the source give for U20C A70U here?
A: 0.0594

Q: Which self-cleavage does the source give for U20C A70G here?
A: 0.107

Q: Which self-cleavage does the source give for U20A G39A here?
A: 0.133

Q: Which self-cleavage does the source give for U20C G31U here?
A: 0.141

Q: For C21G C62G, which self-cleavage is on record?
A: 0.0755

Q: For C21G C85U, which self-cleavage is on record?
A: 0

Q: With C21A G74C as the variant, how does the self-cleavage read?
A: 0.126

Q: With C21A G74U as the variant, how does the self-cleavage read?
A: 0.0712

Q: With U20C A87G as the variant, how does the self-cleavage read?
A: 0.282

Q: For U20C C26G, which self-cleavage is on record?
A: 0.0923

Q: Which self-cleavage does the source give for C21A C84G here?
A: 0.0314

Q: Which self-cleavage does the source give for U20A U23C here?
A: 0

Q: With C21A G50C as the variant, how does the self-cleavage read?
A: 0.0639

Q: With C21A G50U as the variant, how does the self-cleavage read?
A: 0.0332

Q: Which self-cleavage does the source give for C21A C58G here?
A: 0.128

Q: With U20A A45U as the variant, how does the self-cleavage read?
A: 0

Q: With U20A C58U as the variant, how does the self-cleavage read?
A: 0.158

Q: Which self-cleavage does the source give for U20A U60A here?
A: 0.142

Q: Which self-cleavage does the source give for U20A A43C here?
A: 0.0978

Q: With C21G C66U as the variant, how does the self-cleavage read?
A: 0.0475

Q: Which self-cleavage does the source give for U20C G28U here?
A: 0.119

Q: For U20C G28A, which self-cleavage is on record?
A: 0.147

Q: For C21A U23A, which self-cleavage is on record?
A: 0.0369

Q: For C19G C84A, which self-cleavage is on record?
A: 0.0898

Q: Which self-cleavage does the source give for C21G A42C here?
A: 0.166

Q: With U20C C57G as the variant, how does the self-cleavage read?
A: 0.0723

Q: Which self-cleavage does the source give for C21A G55C here?
A: 0.13

Q: Which self-cleavage does the source give for U20A G81C here?
A: 0.0449

Q: For C19U C49G, which self-cleavage is on record?
A: 0.154

Q: With C19U G31A as the variant, how does the self-cleavage read?
A: 0.102

Q: With C21G G35A as the variant, how does the self-cleavage read?
A: 0.0817

Q: For U20A C62A, which self-cleavage is on record?
A: 0.119

Q: For C21A U27C, which self-cleavage is on record?
A: 0.0519

Q: With C21A U27A as the variant, how does the self-cleavage read?
A: 0.0504

Q: For C21G A45G, which self-cleavage is on record?
A: 0.185

Q: Which self-cleavage does the source give for U20A A71G here?
A: 0.0665

Q: For U20G G81C, which self-cleavage is on record?
A: 0.095

Q: With C21A G67A as the variant, how does the self-cleavage read?
A: 0.0712

Q: With C19U G50U as the variant, how does the self-cleavage read?
A: 0.159

Q: With C19U C32G as the variant, how does the self-cleavage read?
A: 0.0482

Q: For U20C G59A, which self-cleavage is on record?
A: 0.208

Q: Which self-cleavage does the source give for C21A G53A here?
A: 0.0791

Q: For C19U A45C, which self-cleavage is on record?
A: 0.0767

Q: Which self-cleavage does the source give for C21A C57A here?
A: 0.102

Q: For C19A U79A, which self-cleavage is on record?
A: 0.0773

Q: With C19G U46C as the variant, how does the self-cleavage read?
A: 0.13

Q: For C19G U27G, which self-cleavage is on record?
A: 0

Q: With C19G U27A as the variant, how does the self-cleavage read?
A: 0.0615

Q: For U20G C61U, which self-cleavage is on record?
A: 0.131

Q: With U20A C75A as the variant, how does the self-cleavage read?
A: 0.0923

Q: Which self-cleavage does the source give for U20G G82C here?
A: 0.246

Q: With C19G G38A as the variant, how does the self-cleavage read?
A: 0.0511

Q: With C19U C85A as the variant, how does the self-cleavage read?
A: 0.0378

Q: Which self-cleavage does the source give for U20G C26U here?
A: 0.256

Q: With C21G C75A as the variant, how does the self-cleavage read?
A: 0.0415

Q: For C21G C75U, which self-cleavage is on record?
A: 0.0378

Q: For U20A C21G, which self-cleavage is on record?
A: 0.256

Q: With U20A C21A as the variant, how does the self-cleavage read?
A: 0.0536

Q: With C19U C22A as the variant, how does the self-cleavage read?
A: 0.0886

Q: With C19U C22U as the variant, how does the self-cleavage read?
A: 0.058

Q: Which self-cleavage does the source give for U20A A42G here?
A: 0
